{
  "source": "patent US20220290132",
  "molecular_target": "SpCas9 nuclease (Streptococcus pyogenes) (UniProt Q99ZW2)",
  "sequence (Q99ZW2 whole entry)": "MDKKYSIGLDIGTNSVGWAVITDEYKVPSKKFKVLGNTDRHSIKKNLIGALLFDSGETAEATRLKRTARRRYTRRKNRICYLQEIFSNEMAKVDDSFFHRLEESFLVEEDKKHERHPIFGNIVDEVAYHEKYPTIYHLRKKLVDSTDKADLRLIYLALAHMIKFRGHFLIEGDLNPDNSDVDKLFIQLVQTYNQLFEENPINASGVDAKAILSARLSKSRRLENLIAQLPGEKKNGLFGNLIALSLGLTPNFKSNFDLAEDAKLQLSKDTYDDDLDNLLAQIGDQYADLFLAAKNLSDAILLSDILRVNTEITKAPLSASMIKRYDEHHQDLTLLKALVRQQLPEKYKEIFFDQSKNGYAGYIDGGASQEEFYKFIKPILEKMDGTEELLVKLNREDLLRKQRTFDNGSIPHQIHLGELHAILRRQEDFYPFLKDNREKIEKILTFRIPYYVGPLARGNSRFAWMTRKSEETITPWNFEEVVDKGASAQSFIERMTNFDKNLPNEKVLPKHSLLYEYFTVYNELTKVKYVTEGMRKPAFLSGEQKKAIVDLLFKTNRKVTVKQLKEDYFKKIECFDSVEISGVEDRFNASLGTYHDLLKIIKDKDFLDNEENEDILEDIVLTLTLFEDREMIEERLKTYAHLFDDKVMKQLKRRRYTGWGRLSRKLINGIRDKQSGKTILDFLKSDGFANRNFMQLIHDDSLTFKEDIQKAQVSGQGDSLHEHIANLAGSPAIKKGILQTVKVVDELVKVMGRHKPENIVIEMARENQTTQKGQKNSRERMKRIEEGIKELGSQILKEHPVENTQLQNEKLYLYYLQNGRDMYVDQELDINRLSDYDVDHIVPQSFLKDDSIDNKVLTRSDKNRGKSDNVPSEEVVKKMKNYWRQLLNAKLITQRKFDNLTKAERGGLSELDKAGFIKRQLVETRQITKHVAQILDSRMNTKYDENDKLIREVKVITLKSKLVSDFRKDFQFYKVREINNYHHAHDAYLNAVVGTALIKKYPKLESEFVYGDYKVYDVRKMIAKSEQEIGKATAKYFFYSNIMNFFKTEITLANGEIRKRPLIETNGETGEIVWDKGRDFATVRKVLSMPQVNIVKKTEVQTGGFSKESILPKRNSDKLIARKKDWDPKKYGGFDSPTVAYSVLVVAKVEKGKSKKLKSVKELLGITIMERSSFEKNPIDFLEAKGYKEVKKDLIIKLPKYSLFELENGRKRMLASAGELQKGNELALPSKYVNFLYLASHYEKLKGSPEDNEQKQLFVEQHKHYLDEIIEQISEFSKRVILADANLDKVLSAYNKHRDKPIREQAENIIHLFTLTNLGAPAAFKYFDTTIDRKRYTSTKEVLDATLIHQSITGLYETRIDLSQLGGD",
  "assay": "EMSA",
  "details": "30 nM Cas9, 30 nM RNA, NEBuffer 3.1, 25 C then 37 C; negative control",
  "data": [
    {"substance": "non-CRISPR structured RNA negative control", "values": [
      {"measurement": "binding signal", "result": 55, "unit": "% bound"}
    ]}
  ]
}
